Laboratory results published in patent US20240190983A1 (JULIUS MAXIMILIANS UNIVERSIT T W RZBURG, published 2024).

Assays:
Human TNFR2 [1] = biological target: T1, Human TNFR2 (human, UniProt P20333 23-461); assay: specific binding of the GpL fusion protein to HeLa-TNFR2 cells after 8 h, HeLa values subtracted, luciferase activity normalised to GpL per binding site
T1 construct: On cells: HeLa-TNFR2, HT1080-Bcl2-TNFR2, transiently transfected HEK293; endogenous on Kym-1 cells; also called huTNFR2; TNFRSF1B
T1 sequence: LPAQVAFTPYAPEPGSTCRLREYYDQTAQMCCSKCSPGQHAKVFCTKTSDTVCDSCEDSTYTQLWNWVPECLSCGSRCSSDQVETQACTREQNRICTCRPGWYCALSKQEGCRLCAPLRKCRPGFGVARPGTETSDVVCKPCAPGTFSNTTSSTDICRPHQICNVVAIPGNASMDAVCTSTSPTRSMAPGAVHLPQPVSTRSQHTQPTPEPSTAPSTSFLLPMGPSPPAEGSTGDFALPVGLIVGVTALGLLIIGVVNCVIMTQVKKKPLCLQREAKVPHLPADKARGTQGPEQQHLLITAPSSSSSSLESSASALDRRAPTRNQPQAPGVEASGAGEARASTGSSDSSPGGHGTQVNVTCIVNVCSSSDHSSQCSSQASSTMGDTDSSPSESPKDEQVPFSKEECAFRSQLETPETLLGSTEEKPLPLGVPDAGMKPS
Procedure: HeLa-TNFR2 cells were pretreated with 3-10 μg/ml of the indicated anti-TNFR2 antibodies or remained untreated. […] Supernatants of HeLa-TNFR2 cells were then analyzed for TNFR2-induced IL8 production (B) and repeatedly washed cells (HeLa, and HeLa-TNFR2) were analyzed for cell-associated GpL activity. Specific binding to TNFR2, shown in (A) was calculated by subtraction of the unspecific binding values obtained from the HeLa cells from the total binding values derived of the HeLa-TNFR2 cells. […] The latter was transformed into “occupied receptors per cells” by help of the number of cells in the assay and the measured specific activity (RLU/molecule) of the GpL constructs.
Supernatants of HeLa-TNFR2 were then analyzed for TNFR2-induced IL8 production with the results shown in (B). Repeatedly washed cells (HeLa, and HeLa-TNFR2) were analyzed for cell-associated GpL activity. Specific binding to TNFR2, was calculated by subtraction of the unspecific binding values obtained from the HeLa cells from the total binding values derived of the HeLa-TNFR2 cells with the results obtained shown in (A).

Cynomolgus TNFR2 [2] = biological target: T2, Cynomolgus TNFR2 (Macaca fascicularis (cynomolgus monkey), UniProt P20333 26-461 (human entry)); assay: equilibrium binding of VHH-Fc-GpL to cells expressing cynomolgus TNFR2, 37 C; column head Affinity (ng/ml)
T2 construct: Expressed on transiently transfected HEK293 cells; also called TNFR2-cyno; monkey TNFR2
T2 chain: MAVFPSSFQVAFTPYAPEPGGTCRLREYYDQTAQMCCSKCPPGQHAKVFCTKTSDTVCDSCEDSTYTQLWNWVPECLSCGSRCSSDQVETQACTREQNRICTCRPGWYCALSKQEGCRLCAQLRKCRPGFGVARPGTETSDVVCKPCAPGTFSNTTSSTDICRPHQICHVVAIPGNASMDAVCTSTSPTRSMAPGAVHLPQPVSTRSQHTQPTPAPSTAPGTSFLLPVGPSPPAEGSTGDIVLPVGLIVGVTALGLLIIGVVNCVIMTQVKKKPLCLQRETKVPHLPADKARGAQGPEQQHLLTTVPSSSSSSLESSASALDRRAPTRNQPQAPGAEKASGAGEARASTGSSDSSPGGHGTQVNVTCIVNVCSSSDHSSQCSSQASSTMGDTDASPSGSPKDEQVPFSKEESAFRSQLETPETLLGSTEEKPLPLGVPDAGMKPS
Procedure: (§1) Specific binding (open circles) was obtained by subtraction of the non-specific binding values (Hek293 cells—crosses) from the binding values for transfectants expressing human TNFR2 (total binding—closed circles). Specific binding was analyzed with the “nonlinear regression to a one-site specific binding curve” function of the GraphPad Prism5 software.
(§2) The equivalent experiment was also performed using TNFR2 from different species, namely from Mus musculus (mouse), Macaca fascicularis (cynomolgus monkey), and Chlorocebus sabaeus (African green monkey) to study the ability of the VHH regions to bind to TNFR2 from different species. The ability to cross react to TNFR2 from different species can be helpful in allowing the antibodies to be studied in various models before assessment in human patients.

Human TNFR2 [3] = biological target: T1, Human TNFR2; assay: equilibrium binding of VHH-Fc-GpL to cells expressing human TNFR2, 37 °C; HEK293 cells as unspecific binding; one-site fit of specific binding
[4] = biological target: T3, African green monkey TNFR2 (Chlorocebus sabaeus (African green …)); assay: equilibrium binding of VHH-Fc-GpL to cells expressing African green monkey TNFR2, 37 C; column head Affinity (ng/ml)
T3 construct: whole, on cells
Procedure: as §1, §2

Murine TNFR2 [5] = biological target: T4, Murine TNFR2 (mouse, UniProt P25119 23-474); assay: equilibrium binding of VHH-Fc-GpL to cells expressing mouse TNFR2, 37 C; column head Affinity (ng/ml)
T4 construct: Expressed on transiently transfected HEK293 cells; also called mouse TNFR2; TNFR2(mu)
T4 sequence: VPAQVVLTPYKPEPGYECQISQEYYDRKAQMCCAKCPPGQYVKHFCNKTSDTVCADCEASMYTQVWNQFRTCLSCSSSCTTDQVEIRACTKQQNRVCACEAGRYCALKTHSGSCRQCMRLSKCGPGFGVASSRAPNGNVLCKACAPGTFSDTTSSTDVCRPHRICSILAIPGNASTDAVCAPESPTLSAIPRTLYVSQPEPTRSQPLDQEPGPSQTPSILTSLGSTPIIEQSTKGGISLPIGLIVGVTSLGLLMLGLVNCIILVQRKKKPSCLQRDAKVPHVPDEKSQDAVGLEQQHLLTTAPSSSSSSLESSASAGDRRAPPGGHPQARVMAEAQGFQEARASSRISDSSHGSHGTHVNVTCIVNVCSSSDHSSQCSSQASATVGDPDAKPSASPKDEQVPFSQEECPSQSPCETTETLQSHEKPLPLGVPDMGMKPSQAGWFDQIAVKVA
Procedure: as §1, §2

[6] = biological target: T5, Extracellular domain of TNFR1 with a GPI anchor domain (UniProt P19438 30-211); assay: binding of the GpL tagged protein to HEK293 cells transiently transfected with the TNFR1 extracellular domain with GPI anchor; empty-vector cells as non-specific binding
T5 construct: extracellular domain; not shown: GPI anchor domain
T5 sequence (looked up): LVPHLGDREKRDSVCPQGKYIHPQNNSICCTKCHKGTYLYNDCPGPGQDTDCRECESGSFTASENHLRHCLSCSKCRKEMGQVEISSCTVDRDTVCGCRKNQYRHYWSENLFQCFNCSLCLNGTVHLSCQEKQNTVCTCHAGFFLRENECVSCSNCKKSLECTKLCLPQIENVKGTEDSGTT
Procedure: (§3) HEK293 cells were transiently transfected with: (i) a TNFR2 expression plasmid; (ii) an expression plasmid encoding the extracellular domain of TNFR1 with a GPI anchor domain; or (iii) empty vector (ev). Next day, the indicated GpL tagged binding molecules were added at the indicated concentration to the cells. After incubation for 1 hour at 37° C., followed by two washes with PBS, the remaining cell bound GpL activity was determined.
(§4) An experiment was performed to illustrate the ability of the binding molecules provided to bind TNFR2, but not TNFR1. HEK293 cells were transiently transfected with: (i) a TNFR2 expression plasmid; (ii) an expression plasmid encoding the extracellular domain of TNFR1 with a GPI anchor domain; or (iii) empty vector (ev). […] The proteins indicated in FIG. 27 were added at the indicated concentration to the HEK293 cells. After incubation for 1 hour at 37° C., followed by two washes with PBS, the remaining cell bound GpL activity was determined.

Cynomolgus TNFR2 [7] = biological target: T2, Cynomolgus TNFR2; assay: equilibrium binding of the GpL fusion protein to HEK293 cells transiently transfected with cynomolgus TNFR2, 37 °C; empty-vector cells as non-specific binding
Procedure: (§5) FIG. 14—Binding of TNFR2-specific antibodies to human, murine and cynomolgus TNFR2. HEK293 cells were transiently transfected with human, murine and cynomologus TNFR2 or empty vector. Equilibrium binding of the indicated anti-TNFR2 antibody GpL fusion proteins were then determined at 37° C. Binding to empty vector transfected cells was determined to obtain unspecific binding values.
(§6) Affinity (KD-values) of TNFR2-targeting antibodies to human, cynomolgus monkey, and murine TNFR2 was evaluated by cellular equilibrium binding studies. Therefore, HEK293T cells were transiently transfected with human, cynomolgus or mouse TNFR2 encoding expression plasmids or an empty vector control (EV) using the PEI method. […] Cell associated luciferase activity (RLU; relative light units) was detected with LUmo luminometer (anthos Mikrosysteme GmbH, Friesoythe, Germany) directly after adding 1.5 μM of the substrate coelenterazin (Carl Roth, Karlsruhe, Germany).
(§7) The binding properties of anti-TNFR2 antibodies from different clones were assessed. […] Equilibrium binding of the indicated anti-TNFR2 antibody GpL fusion proteins was then determined at 37° C. Binding to empty vector transfected cells was determined to obtain unspecific binding values.

Human TNFR2 [8] = biological target: T1, Human TNFR2; assay: equilibrium binding of the GpL fusion protein to HeLa-TNFR2 cells, 37 °C; unspecific binding on HeLa cells subtracted; cell-bound luciferase
Procedure: FIG. 11—Binding properties of TNFR2-specific antibodies. (A) Equilibrium binding of the indicated anti-TNFR2 antibody GpL fusion proteins to cell expressed human TNFR2 at 37° C. (B) HeLa-TNFR2 cells were pretreated with the indicated amounts of anti-TNFR2 antibodies or remained untreated. […] Binding of the various constructs to untransfected HeLa cells was analyzed to obtain unspecific binding values.
Affinity of TNFR2-specific antibodies and antibody variants were also evaluated with HeLa cells and HeLa cells stably expressing human TNFR2. HeLa and HeLa-TNFR2 cells were seeded out in 24-well plates. Next day, the cells were challenged with the indicated concentrations of GpL-labelled TNFR2 antibodies for 1 hour at 37° C. To eliminate the unbound antibodies, the cells were washed 10 times with ice-cold PBS. The cells were then scratched and collected in 50 μl of medium (RPMI, 0.5% FCS) and transferred to black 96-well plates for measurement as mentioned above. The specific binding of different TNFR2-specific antibodies/antibody variants was calculated by subtracting the unspecific binding (values obtained from HeLa cells) from total binding (obtained from HeLa-TNFR2). The resulting values were fitted using the non-linear regression analysis option of GraphPad Prism 5.

Murine TNFR2 [9] = biological target: T4, Murine TNFR2; assay: equilibrium binding of the GpL fusion protein (label C9-IgG1-LC:GpL) to HEK293 cells transiently transfected with murine TNFR2; empty-vector cells as non-specific binding
Procedure: as §5, §6, §7

Human TNFR2 [10] = biological target: T1, Human TNFR2; assay: binding of the GpL tagged protein to HEK293 cells transiently transfected with TNFR2, 1 h 37 °C; empty-vector cells as non-specific binding
Procedure: as §3, §4

B1: C4-IgG1(N297A)-LC:GpL-HC:scFvC4 (antibody)
light: EVKLVPRQLDIVMTQSHKFMSTSVGDRVSITCKASQDVDTAVAWYQQKPGQSPKLLIYWASTRHTGVPDRFTGSGSGTDYTLTISSVQAEDLARYYCQQYYSVPPTFGGGTKLGSEIKRTVAAPSVFIFPPSDEQLKSGTASVVCLLNNFYPREAKVQWKVDNALQSGNSQESVTEQDSKDSTYSLSSTLTLSKADYEKHKVYACEVTHQGLSSPVTKSFNRGECLEKPTENNEDFNIVAVASNFATTDLDADRGKLPGKKLPLEVLKEMEANARKAGCTRGCLICLSHIKCTPKMKKFIPGRCHTYEGDKESAQGGIGEAIVDIPEIPGFKDLEPMEQFIAQVDLCVDCTTGCLKGLANVQCSDLLKKWLPQRCATFASKIQGQVDKIKGAGGD
heavy: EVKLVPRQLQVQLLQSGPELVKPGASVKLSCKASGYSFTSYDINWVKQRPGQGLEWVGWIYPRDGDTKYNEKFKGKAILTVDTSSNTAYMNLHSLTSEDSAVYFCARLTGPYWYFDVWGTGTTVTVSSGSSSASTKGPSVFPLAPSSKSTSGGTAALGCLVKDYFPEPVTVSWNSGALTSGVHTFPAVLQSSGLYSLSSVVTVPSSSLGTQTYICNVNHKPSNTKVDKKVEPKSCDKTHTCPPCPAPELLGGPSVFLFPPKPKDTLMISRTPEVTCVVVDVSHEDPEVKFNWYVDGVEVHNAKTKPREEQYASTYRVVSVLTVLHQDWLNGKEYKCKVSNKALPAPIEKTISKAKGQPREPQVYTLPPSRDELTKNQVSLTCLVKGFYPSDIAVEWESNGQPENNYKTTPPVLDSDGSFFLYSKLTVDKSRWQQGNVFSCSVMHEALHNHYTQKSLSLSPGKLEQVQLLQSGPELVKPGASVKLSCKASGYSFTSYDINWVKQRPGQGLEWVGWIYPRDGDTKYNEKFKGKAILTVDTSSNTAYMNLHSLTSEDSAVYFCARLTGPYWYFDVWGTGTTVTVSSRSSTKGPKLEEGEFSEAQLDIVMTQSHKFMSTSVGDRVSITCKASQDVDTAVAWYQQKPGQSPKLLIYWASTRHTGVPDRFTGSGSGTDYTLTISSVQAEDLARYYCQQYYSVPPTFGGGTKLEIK
notes: copies: 2 + 2
B1: binds (Human TNFR2 [1]).

B2: VHH:C238-Fc-GpL (Fc fusion)
VHH: QVQLVESGGGSVQPGGSLTLSCVDSGSAYLSYCMAWFRQAPGKEREGVAAIYYGGDSYYADSVKGRFTISQDHAKNTMYLQMNSLKPEDTAVYYCAADVGFICGYDSDNDPPNDWGQGTQVTVSS
notes: also called VHH-Fc-GpL format protein of C238; not shown: the listing has no entry for the VHH-Fc-GpL format
Binder B2 has a Kd (Cynomolgus TNFR2 [2]) of 0.2 µg/mL, a Kd (Human TNFR2 [3]) of 0.67 µg/mL and a Kd [4] of 0.17 µg/mL. For the same binder, the Kd (Murine TNFR2 [5]) was 1.05 µg/mL.

B3: C9-IgG1(N297A)-LC:GpL (antibody)
light: EVKLVPRQLDYKDDDDKELQIVLTQSPAIMSASPGEKVTITCSASSSVSYMHWFQQKPGTSPKLWIYSTSNLASGVPARFSGSGSGTSYSLTISRMEAEDAATYYCQQRSSYPPTFGGGTKLEIKGSEIKRTVAAPSVFIFPPSDEQLKSGTASVVCLLNNFYPREAKVQWKVDNALQSGNSQESVTEQDSKDSTYSLSSTLTLSKADYEKHKVYACEVTHQGLSSPVTKSFNRGECLEKPTENNEDFNIVAVASNFATTDLDADRGKLPGKKLPLEVLKEMEANARKAGCTRGCLICLSHIKCTPKMKKFIPGRCHTYEGDKESAQGGIGEAIVDIPEIPGFKDLEPMEQFIAQVDLCVDCTTGCLKGLANVQCSDLLKKWLPQRCATFASKIQGQVDKIKGAGGD
heavy: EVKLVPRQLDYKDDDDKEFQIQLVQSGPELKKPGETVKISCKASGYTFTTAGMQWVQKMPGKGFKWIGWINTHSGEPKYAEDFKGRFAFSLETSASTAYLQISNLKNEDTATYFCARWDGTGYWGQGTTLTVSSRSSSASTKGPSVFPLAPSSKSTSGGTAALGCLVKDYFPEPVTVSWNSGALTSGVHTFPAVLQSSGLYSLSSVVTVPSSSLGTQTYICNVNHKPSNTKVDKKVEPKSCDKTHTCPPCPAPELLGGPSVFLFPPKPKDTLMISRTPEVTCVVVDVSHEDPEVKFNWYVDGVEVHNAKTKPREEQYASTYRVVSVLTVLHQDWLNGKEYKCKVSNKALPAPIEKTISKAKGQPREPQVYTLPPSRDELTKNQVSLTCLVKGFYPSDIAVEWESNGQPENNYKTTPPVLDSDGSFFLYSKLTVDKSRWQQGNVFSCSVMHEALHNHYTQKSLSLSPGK
notes: copies: 2 + 2
In the case of B3, the binding result [6] is reported as “no binding (tested: 750 ng/ml)”, the Kd (Cynomolgus TNFR2 [7]) is reported as 1.1 µg/mL and the Bmax (Human TNFR2 [8]) is reported as 1000 kRLU. The Kd (Human TNFR2 [8]) was 0.22 µg/mL, the binding result (Murine TNFR2 [9]) was “no binding (tested: 1500 ng/ml)” and the Kd (Human TNFR2 [10]) was 0.13 µg/mL.
